Source: article PMC9332313, “Folding and Binding Mechanisms of the SH2 Domain from Crkl” (Biomolecules, 2022)
Square brackets hold non-standard residues; d marks the D form. Ends that are not written are not given here. * marks the point of attachment. pY = N[C@@H](Cc1ccc(OP(=O)(O)O)cc1)C(=O)O; Dansyl = CN(C)c1cccc2c(S(=O)(=O)*)cccc12

Assays:
Conditions in all cases: both partners purified
[1] = biological target: T1, SH2 domain of Crkl protein (residues 1-111), wild type (UniProt P46109 1-111); experiment: stopped-flow fluorescence kinetics (FRET); dansyl-Pax112-123 constant at 2 μM mixed with Crkl-SH2 2 to 10 μM (pseudo-first-order, kon); koff by displacement of the preincubated 2 µM complex with excess non-dansylated Pax112-123 (30 μM); 283 K; 50 mM TrisHCl pH 8.5, 0.5 M NaCl
T1 construct: Crkl adaptor protein, SH2 domain, residues 1-111; Subcloned in pET28b+; all experiments were done on the N-terminally His-tagged protein; also called Crkl-SH2; Crkl SH2 domain; source: E. coli BL21 (DE3), purified (HisTrap nickel column, desalting); not shown: His tag, N-terminal, kept
T1 sequence (P46109 1-111): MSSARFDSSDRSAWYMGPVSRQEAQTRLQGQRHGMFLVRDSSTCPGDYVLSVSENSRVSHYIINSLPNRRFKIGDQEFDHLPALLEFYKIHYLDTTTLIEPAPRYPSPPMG

[2] = biological target: T2, SH2 domain of Crkl protein (residues 1-111), H33A variant (UniProt P46109 1-111, H33A); experiment: as above
T2 construct: Crkl adaptor protein, SH2 domain, residues 1-111, His33 replaced by alanine; Site-directed mutant of m1 (QuikChange); source: E. coli BL21 (DE3), purified (HisTrap nickel column, desalting); not shown: His tag, N-terminal, kept
T2 sequence (P46109 1-111 H33A): as the sequence (P46109 1-111) above, with H33A counted along it

[3] = biological target: T3, SH2 domain of Crkl protein (residues 1-111), H91A variant (UniProt P46109 1-111, H91A); experiment: as above
T3 construct: Crkl adaptor protein, SH2 domain, residues 1-111, His91 replaced by alanine; Site-directed mutant of m1 (QuikChange); source: E. coli BL21 (DE3), purified (HisTrap nickel column, desalting); not shown: His tag, N-terminal, kept
T3 sequence (P46109 1-111 H91A): as the sequence (P46109 1-111) above, with H91A counted along it

[4] = biological target: T1, SH2 domain of Crkl protein (residues …); experiment: stopped-flow fluorescence kinetics (FRET); dansyl-Pax112-123 constant at 2 μM mixed with Crkl-SH2 2 to 10 μM (pseudo-first-order, kon); koff by displacement of the preincubated 2 µM complex with excess non-dansylated Pax112-123 (30 μM); 283 K; 50 mM BisTRIS pH 6.0, 0.5 M NaCl
[5] = biological target: T2, SH2 domain of Crkl protein (residues …); experiment: as above
[6] = biological target: T4, SH2 domain of Crkl protein (residues 1-111), H80A variant (UniProt P46109 1-111, H80A); experiment: as above
T4 construct: Crkl adaptor protein, SH2 domain, residues 1-111, His80 replaced by alanine; Site-directed mutant of m1 (QuikChange); source: E. coli BL21 (DE3), purified (HisTrap nickel column, desalting); not shown: His tag, N-terminal, kept
T4 sequence (P46109 1-111 H80A): as the sequence (P46109 1-111) above, with H80A counted along it

[7] = biological target: T3, SH2 domain of Crkl protein (residues …); experiment: as above
[8] = biological target: T1, SH2 domain of Crkl protein (residues …); experiment: stopped-flow fluorescence kinetics (FRET); dansyl-Pax112-123 constant at 2 μM mixed with Crkl-SH2 2 to 10 μM (pseudo-first-order, kon); koff by displacement of the preincubated 2 µM complex with excess non-dansylated Pax112-123 (30 μM); 283 K; 50 mM TrisHCl pH 8.0, 0.5 M NaCl
[9] = biological target: T4, SH2 domain of Crkl protein (residues …); experiment: as above
[10] = biological target: T3, SH2 domain of Crkl protein (residues …); experiment: as above

B1: dansylated Pax_(112–123) peptide (Dans-GEEEHV-pY-SFPNK) (peptide)
peptide: Dansyl-GEEEHV[pY]SFPNK
notes: The dansyl group is the FRET acceptor of Trp14 of the SH2 domain; source: synthetic peptide, bought: GenScript
[1]
  Kd: 3500 ± 300 nM
  koff: 41.6 ± 0.9 s⁻¹
  kon: 1.2e+07 ± 1.1e+06 M⁻¹ s⁻¹
[2]
  Kd: 2100 ± 300 nM
  koff: 26.9 ± 2.8 s⁻¹
  kon: 1.26e+07 ± 1.4e+06 M⁻¹ s⁻¹
[3]
  Kd: 2600 ± 100 nM
  koff: 34.9 ± 0.5 s⁻¹
  kon: 1.36e+07 ± 600000 M⁻¹ s⁻¹
[4]
  Kd: 2600 ± 200 nM
  koff: 20.8 ± 0.3 s⁻¹
  kon: 7.9e+06 ± 600000 M⁻¹ s⁻¹
[5]
  Kd: 3300 ± 200 nM
  koff: 19.5 ± 0.4 s⁻¹
  kon: 5.9e+06 ± 300000 M⁻¹ s⁻¹
[6]
  Kd: 3200 ± 100 nM
  koff: 19.6 ± 0.3 s⁻¹
  kon: 6.1e+06 ± 300000 M⁻¹ s⁻¹
[7]
  Kd: 3000 ± 100 nM
  koff: 20 ± 0.3 s⁻¹
  kon: 6.6e+06 ± 200000 M⁻¹ s⁻¹
[8]
  Kd: 3100 ± 200 nM
  koff: 41.4 ± 0.9 s⁻¹
  kon: 1.32e+07 ± 700000 M⁻¹ s⁻¹
[9]
  Kd: 2300 ± 300 nM
  koff: 30.1 ± 3.3 s⁻¹
  kon: 1.32e+07 ± 700000 M⁻¹ s⁻¹
[10]
  Kd: 2900 ± 100 nM
  koff: 39 ± 0.7 s⁻¹
  kon: 1.32e+07 ± 500000 M⁻¹ s⁻¹
